In the supplement of paper PMC5998384:

How the values were obtained:
HeLa Kyoto [1] = experiment: thermal stability score vs G1/S (z-score of summed log2 fold changes over temperatures); higher = more thermally stable than in G1/S
HeLa Kyoto [2] = experiment: solubility in G1/S (NP-40 vs SDS abundance) (log2 ratio); higher = more soluble; conditions: cell cycle stage: G1/S
HeLa Kyoto [3] = experiment: solubility change mitosis vs G1/S (difference of NP-40 vs SDS log2 ratios) (log2 ratio difference); higher = more soluble in mitosis
HeLa Kyoto [4] = experiment: melting temperature (median over replicates), in situ; higher = more thermally stable
[5] = cell cycle stage: early G1 (4.5 h after nocodazole release)
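Throughout, for melting temperature (median over replicates), in situ: HeLa Kyoto cells synchronized by double thymidine or nocodazole block, proteins quantified by TMT10plex mass spectrometry, three independent biological replicates.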
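Throughout, for solubility change mitosis vs G1/S (difference of NP-40 vs SDS log2 ratios): synchronized HeLa Kyoto cells (double thymidine block for G1/S, nocodazole release for mitosis), protein amounts in NP-40 versus SDS lysates quantified by mass spectrometry, three biological replicates.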
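Throughout, for solubility in G1/S (NP-40 vs SDS abundance): HeLa Kyoto cells arrested at G1/S by double thymidine block, proteins quantified by TMT10plex mass spectrometry in mild NP-40 versus SDS extracts, three biological replicates.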
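Throughout, for thermal stability score vs G1/S (z-score of summed log2 fold changes over temperatures): synchronized HeLa Kyoto cells, proteins quantified by TMT10plex mass spectrometry, three biological replicates, mitosis taken 0.5 h after nocodazole release, G1/S directly after double thymidine block.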

Question: Which results are given for “MATPAGLERWVQDELHSVLGLSERHVAQFLIGTAQRCTSAEEFVQRLRDTDTLDLSGPARDFALRLWNKVPRKAVVEKPARAAEREARALLEKNRSYRLLEDSEESSEETVSRAGSSLQKKRKKRKHLRKKREEEEEEEASEKGKKKTGGSKQQTEKPESEDEWERTERERLQDLEERDAFAERVRQRDKDRTRNVLERSDKKAYEEAQKRLKMAEEDRKAMVPELRKKSRREYLAKREREKLEDLEAELADEEFLFGDVELSRHERQELKYKRRVRDLAREYRAAGEQEKLEATNRYHMPKETRGQPARAVDLVEEESGAPGEEQRRWEEARLGAASLKFGARDAASQEPKYQLVLEEEETIEFVRATQLQGDEEPSAPPTSTQAQQKESIQAVRRSLPVFPFREELLAAIANHQVLIIEGETGSGKTTQIPQYLFEEGYTNKGMKIACTQPRRVAAMSVAARVAREMGVKLGNEVGYSIRFEDCTSERTVLRYMTDGMLLREFLSEPDLASYSVVMVDEAHERTLHTDILFGLIKDVARFRPELKVLVASATMDTARFSTFFDDAPVFRIPGRRFPVDIFYTKAPEADYLEACVVSVLQIHVTQPPGDILVFLTGQEEIEAACEMLQDRCRRLGSKIRELLVLPIYANLPSDMQARIFQPTPPGARKVVVATNIAETSLTIEGIIYVLDPGFCKQKSYNPRTGMESLTVTPCSKASANQRAGRAGRVAAGKCFRLYTAWAYQHELEETTVPEIQRTSLGNVVLLLKSLGIHDLMHFDFLDPPPYETLLLALEQLYALGALNHLGELTTSGRKMAELPVDPMLSKMILASEKYSCSEEILTVAAMLSVNNSIFYRPKDKVVHADNARVNFFLPGGDHLVLLNVYTQWAESGYSSQWCYENFVQFRSMRRARDVREQLEGLLERVEVGLSSCQGDYIRVRKAITAGYFYHTARLTRSGYRTVKQQQTVFIHPNSSLFEQQPRWLLYHELVLTTKEFMRQVLEIESSWLLEVAPHYYKAKELEDPHAKKMPKKIGKTREELG [DHX16]”?
Answer: thermal stability score (HeLa Kyoto [1]; [5]): 1.68; thermal stability score (HeLa Kyoto [1]; cell cycle stage: mitosis): 2.22; solubility in G1/S (log2) (HeLa Kyoto [2]): -0.394; solubility change mitosis (log2) (HeLa Kyoto [3]): 0.00704; melting temperature (HeLa Kyoto [4]; cell cycle stage: G1/S): 49.9 °C; melting temperature (HeLa Kyoto [4]; cell cycle stage: mitosis): 50.8 °C

Question: Which thermal stability score (HeLa Kyoto [1]; [5]) does the source give for “MADEDLIFRLEGVDGGQSPRAGHDGDSDGDSDDEEGYFICPITDDPSSNQNVNSKVNKYYSNLTKSERYSSSGSPANSFHFKEAWKHAIQKAKHMPDPWAEFHLEDIATERATRHRYNAVTGEWLDDEVLIKMASQPFGRGAMRECFRTKKLSNFLHAQQWKGASNYVAKRYIEPVDRDVYFEDVRLQMEAKLWGEEYNRHKPPKQVDIMQMCIIELKDRPGKPLFHLEHYIEGKYIKYNSNSGFVRDDNIRLTPQAFSHFTFERSGHQLIVVDIQGVGDLYTDPQIHTETGTDFGDGNLGVRGMALFFYSHACNRICESMGLAPFDLSPRERDAVNQNTKLLQSAKTILRGTEEKCGSPQVRTLSGSRPPLLRPLSENSGDENMSDVTFDSLPSSPSSATPHSQKLDHLHWPVFSDLDNMASRDHDHLDNHRESENSGDSGYPSEKRGELDDPEPREHGHSYSNRKYESDEDSLGSSGRVCVEKWNLLNSSRLHLPRASAVALEVQRLNALDLEKKIGKSILGKVHLAMVRYHEGGRFCEKGEEWDQESAVFHLEHAANLGELEAIVGLGLMYSQLPHHILADVSLKETEENKTKGFDYLLKAAEAGDRQSMILVARAFDSGQNLSPDRCQDWLEALHWYNTALEMTDCDEGGEYDGMQDEPRYMMLAREAEMLFTGGYGLEKDPQRSGDLYTQAAEAAMEAMKGRLANQYYQKAEEAWAQMEE [EEF2K]” here?
Answer: The thermal stability score was 0.84.

Question: And the thermal stability score (HeLa Kyoto [1]; cell cycle stage: mitosis)?
Answer: The thermal stability score was 1.21.

Question: What about the “solubility in G1/S (log2)” value (HeLa Kyoto [2]) of the same substance?
Answer: Its value is 0.0328.

Question: And the “solubility change mitosis (log2)” value (HeLa Kyoto [3])?
Answer: The value was -0.158.

Question: And the melting temperature (HeLa Kyoto [4]; cell cycle stage: G1/S)?
Answer: Its melting temperature is 47.7 °C.

Question: And the melting temperature (HeLa Kyoto [4]; cell cycle stage: mitosis)?
Answer: Its melting temperature is 48.4 °C.

Question: For SEC16A, which thermal stability score (HeLa Kyoto [1]; [5]) is on record?
Answer: Its thermal stability score is 0.0465.

Question: What about the thermal stability score (HeLa Kyoto [1]; cell cycle stage: mitosis) of the same substance?
Answer: The thermal stability score was 2.03.

Question: And the “solubility in G1/S (log2)” value (HeLa Kyoto [2])?
Answer: Its value is -0.0963.

Question: What about the “solubility change mitosis (log2)” value (HeLa Kyoto [3]) of the same substance?
Answer: The value was -0.00335.

Question: What about the melting temperature (HeLa Kyoto [4]; cell cycle stage: G1/S) of the same substance?
Answer: Its melting temperature is 49.4 °C.

Question: What about the melting temperature (HeLa Kyoto [4]; cell cycle stage: mitosis) of the same substance?
Answer: The melting temperature was 49.7 °C.

Question: For “MVLTLGESWPVLVGRRFLSLSAADGSDGSHDSWDVERVAEWPWLSGTIRAVSHTDVTKKDLKVCVEFDGESWRKRRWIEVYSLLRRAFLVEHNLVLAERKSPEISERIVQWPAITYKPLLDKAGLGSITSVRFLGDQQRVFLSKDLLKPIQDVNSLRLSLTDNQIVSKEFQALIVKHLDESHLLKGDKNLVGSEVKIYSLDPSTQWFSATVINGNPASKTLQVNCEEIPALKIVDPSLIHVEVVHDNLVTCGNSARIGAVKRKSSENNGTLVSKQAKSCSEASPSMCPVQSVPTTVFKEILLGCTAATPPSKDPRQQSTPQAANSPPNLGAKIPQGCHKQSLPEEISSCLNTKSEALRTKPDVCKAGLLSKSSQIGTGDLKILTEPKGSCTQPKTNTDQENRLESVPQALTGLPKECLPTKASSKAELEIANPPELQKHLEHAPSPSDVSNAPEVKAGVNSDSPNNCSGKKVEPSALACRSQNLKESSVKVDNESCCSRSNNKIQNAPSRKSVLTDPAKLKKLQQSGEAFVQDDSCVNIVAQLPKCRECRLDSLRKDKEQQKDSPVFCRFFHFRRLQFNKHGVLRVEGFLTPNKYDNEAIGLWLPLTKNVVGIDLDTAKYILANIGDHFCQMVISEKEAMSTIEPHRQVAWKRAVKGVREMCDVCDTTIFNLHWVCPRCGFGVCVDCYRMKRKNCQQGAAYKTFSWLKCVKSQIHEPENLMPTQIIPGKALYDVGDIVHSVRAKWGIKANCPCSNRQFKLFSKPASKEDLKQTSLAGEKPTLGAVLQQNPSVLEPAAVGGEAASKPAGSMKPACPASTSPLNWLADLTSGNVNKENKEKQPTMPILKNEIKCLPPLPPLSKSSTVLHTFNSTILTPVSNNNSGFLRNLLNSSTGKTENGLKNTPKILDDIFASLVQNKTTSDLSKRPQGLTIKPSILGFDTPHYWLCDNRLLCLQDPNNKSNWNVFRECWKQGQPVMVSGVHHKLNSELWKPESFRKEFGEQEVDLVNCRTNEIITGATVGDFWDGFEDVPNRLKNEKEPMVLKLKDWPPGEDFRDMMPSRFDDLMANIPLPEYTRRDGKLNLASRLPNYFVRPDLGPKMYNAYGLITPEDRKYGTTNLHLDVSDAANVMVYVGIPKGQCEQEEEVLKTIQDGDSDELTIKRFIEGKEKPGALWHIYAAKDTEKIREFLKKVSEEQGQENPADHDPIHDQSWYLDRSLRKRLHQEYGVQGWAIVQFLGDVVFIPAGAPHQVHNLYSCIKVAEDFVSPEHVKHCFWLTQEFRYLSQTHTNHEDKLQVKNVIYHAVKDAVAMLKASESSFGKP [KDM3A]”, which thermal stability score (HeLa Kyoto [1]; [5]) is on record?
Answer: The thermal stability score was -0.474.

Question: What about the thermal stability score (HeLa Kyoto [1]; cell cycle stage: mitosis) of the same substance?
Answer: The thermal stability score was 0.304.

Question: And the “solubility in G1/S (log2)” value (HeLa Kyoto [2])?
Answer: The value was 0.0198.

Question: And the “solubility change mitosis (log2)” value (HeLa Kyoto [3])?
Answer: The value was -0.158.

Question: What about the melting temperature (HeLa Kyoto [4]; cell cycle stage: G1/S) of the same substance?
Answer: Its melting temperature is 48.6 °C.

Question: What about the melting temperature (HeLa Kyoto [4]; cell cycle stage: mitosis) of the same substance?
Answer: Its melting temperature is 50.4 °C.
